Reference: patent US7288251 (ABGENIX, dated 2007)

T1: rat CD40 on blood cells (rat, UniProt A6JXD6 20-289)
T1 construct: also called rat blood
T1 sequence: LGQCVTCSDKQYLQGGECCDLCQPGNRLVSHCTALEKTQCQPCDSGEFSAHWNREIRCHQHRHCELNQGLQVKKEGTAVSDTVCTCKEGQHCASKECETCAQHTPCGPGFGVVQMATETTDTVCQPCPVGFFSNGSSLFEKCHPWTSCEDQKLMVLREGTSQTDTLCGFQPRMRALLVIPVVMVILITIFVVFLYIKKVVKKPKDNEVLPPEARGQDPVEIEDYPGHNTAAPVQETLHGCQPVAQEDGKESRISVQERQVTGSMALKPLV

T2: dog CD40 on blood cells (dog, UniProt Q7YRL5 21-274)
T2 construct: whole, on cells; also called dog blood
T2 sequence (looked up): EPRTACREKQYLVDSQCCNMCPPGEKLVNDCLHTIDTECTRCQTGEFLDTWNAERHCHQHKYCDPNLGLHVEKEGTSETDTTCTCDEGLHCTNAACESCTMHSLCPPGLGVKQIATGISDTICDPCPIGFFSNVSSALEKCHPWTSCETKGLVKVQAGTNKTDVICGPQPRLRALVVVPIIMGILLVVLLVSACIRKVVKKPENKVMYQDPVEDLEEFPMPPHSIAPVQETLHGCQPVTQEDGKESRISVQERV


Assays:
[1] = target: T3, mouse CD40 on blood cells (mouse, UniProt P27512 20-289); experiment: FACS, whole blood
T3 construct: whole, on cells; also called mouse blood

[2] = target: T1, rat CD40 on blood cells; experiment: FACS, whole blood
[3] = target: T2, dog CD40 on blood cells; experiment: FACS, whole blood
[4] = target: RANK/Ig; experiment: ELISA, RANK/Ig coated, antibody 1 µg/ml
Protocol: (§1) We then washed the plate with PBST (PBS+0.1% Tween-20) three times and blocked the plate with PBST+0.5% BSA at 150 µl/well. We incubated the plate at room temperature for 1 hour and then washed with PBST three times. […] We incubated the plate at room temperature for 1 hour then washed with PBST three times. […] We incubated the plate at room temperature for 1 hour and then washed with PBST three times. […] We then read the plate using a SpectraMax™ plate reader.

[5] = target: T4, 4-1BB/Ig; experiment: ELISA, 4-1BB/Ig coated, antibody 1 µg/ml
T4 construct: also called CD137
Protocol: as §1

[6] = target: T5, TNFR-1/Ig; experiment: ELISA, TNFR-1/Ig coated, antibody 1 µg/ml
T5 construct: also called Tumor Necrosis Factor Receptor-1
Protocol: as §1

[7] = target: T6, TNFR-2/Ig; experiment: ELISA, TNFR-2/Ig coated, antibody 1 µg/ml
T6 construct: also called Tumor Necrosis Factor Receptor-2
Protocol: as §1

[8] = target: T7, human CD40-IgG1 Fc fusion protein (human, UniProt P25942 21-193); experiment: SPR BIAcore 3000, CD40-Ig immobilised, antibody injected
T7 construct: extracellular domain; also called CD40-Ig fusion protein; CD40-IgG fusion protein; not shown: human IgG1 Fc

[9] = target: T8, human CD40 on cells (human, UniProt P25942 21-277); experiment: cell-based or functional assay
[10] = target: T8, human CD40 on cells; experiment: cell-based or functional assay; remark: listed apart in the source
[11] = target: T8, human CD40 on cells; experiment: cell-based or functional assay; remark: listed apart in the source
[12] = target: T8, human CD40 on cells; experiment: cell-based or functional assay; remark: listed apart in the source

T6 sequence (P20333 23-257): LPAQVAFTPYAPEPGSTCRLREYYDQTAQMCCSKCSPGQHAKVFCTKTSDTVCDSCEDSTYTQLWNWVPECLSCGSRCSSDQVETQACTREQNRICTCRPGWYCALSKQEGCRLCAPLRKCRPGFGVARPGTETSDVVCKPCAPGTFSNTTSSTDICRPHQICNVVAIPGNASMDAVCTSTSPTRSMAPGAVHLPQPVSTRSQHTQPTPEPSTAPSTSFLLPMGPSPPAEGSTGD
T5 sequence (P19438 whole entry): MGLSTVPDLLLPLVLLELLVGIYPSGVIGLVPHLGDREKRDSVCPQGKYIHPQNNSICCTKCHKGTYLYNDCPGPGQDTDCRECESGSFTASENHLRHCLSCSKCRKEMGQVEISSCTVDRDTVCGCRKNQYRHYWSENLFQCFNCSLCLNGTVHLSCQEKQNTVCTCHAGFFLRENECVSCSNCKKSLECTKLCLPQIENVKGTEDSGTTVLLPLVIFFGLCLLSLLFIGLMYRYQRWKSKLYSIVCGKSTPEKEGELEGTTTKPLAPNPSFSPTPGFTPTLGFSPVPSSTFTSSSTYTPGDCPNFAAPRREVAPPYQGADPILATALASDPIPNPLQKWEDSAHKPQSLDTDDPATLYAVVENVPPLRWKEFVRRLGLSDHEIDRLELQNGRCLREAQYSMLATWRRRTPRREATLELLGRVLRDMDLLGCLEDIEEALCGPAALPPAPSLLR
T3 sequence (P27512 20-289): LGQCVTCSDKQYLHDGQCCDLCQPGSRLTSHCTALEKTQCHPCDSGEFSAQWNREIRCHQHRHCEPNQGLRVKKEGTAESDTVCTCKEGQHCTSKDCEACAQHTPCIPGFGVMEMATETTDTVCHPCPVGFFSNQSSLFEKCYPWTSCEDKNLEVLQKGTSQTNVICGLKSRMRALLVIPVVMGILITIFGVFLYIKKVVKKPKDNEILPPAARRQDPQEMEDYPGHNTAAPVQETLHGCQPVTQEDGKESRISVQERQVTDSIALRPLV
T8 sequence (P25942 21-277): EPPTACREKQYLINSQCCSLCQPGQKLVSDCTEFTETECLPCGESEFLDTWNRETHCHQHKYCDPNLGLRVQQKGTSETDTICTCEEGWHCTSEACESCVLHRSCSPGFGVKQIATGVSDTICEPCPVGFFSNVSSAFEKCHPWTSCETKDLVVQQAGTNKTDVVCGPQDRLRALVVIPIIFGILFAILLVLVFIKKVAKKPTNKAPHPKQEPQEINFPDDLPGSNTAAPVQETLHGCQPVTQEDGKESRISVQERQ
Chain of RANK/Ig (Q9Y6Q6 whole entry): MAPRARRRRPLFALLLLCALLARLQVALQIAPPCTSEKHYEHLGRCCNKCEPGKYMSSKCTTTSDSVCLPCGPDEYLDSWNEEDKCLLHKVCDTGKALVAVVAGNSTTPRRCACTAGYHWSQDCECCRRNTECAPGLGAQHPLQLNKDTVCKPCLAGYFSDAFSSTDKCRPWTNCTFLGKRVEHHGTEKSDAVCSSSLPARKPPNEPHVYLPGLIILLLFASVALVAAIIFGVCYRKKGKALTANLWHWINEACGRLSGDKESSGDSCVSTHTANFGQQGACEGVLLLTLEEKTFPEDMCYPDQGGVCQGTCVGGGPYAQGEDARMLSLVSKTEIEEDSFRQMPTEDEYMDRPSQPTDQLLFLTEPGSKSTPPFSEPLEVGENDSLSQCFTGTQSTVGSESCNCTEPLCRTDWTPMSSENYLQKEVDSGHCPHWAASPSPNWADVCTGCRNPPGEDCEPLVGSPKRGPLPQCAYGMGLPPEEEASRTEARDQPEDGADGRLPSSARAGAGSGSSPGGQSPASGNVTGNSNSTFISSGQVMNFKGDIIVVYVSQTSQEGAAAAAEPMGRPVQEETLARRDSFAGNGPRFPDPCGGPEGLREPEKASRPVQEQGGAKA
T7 sequence (P25942 21-193): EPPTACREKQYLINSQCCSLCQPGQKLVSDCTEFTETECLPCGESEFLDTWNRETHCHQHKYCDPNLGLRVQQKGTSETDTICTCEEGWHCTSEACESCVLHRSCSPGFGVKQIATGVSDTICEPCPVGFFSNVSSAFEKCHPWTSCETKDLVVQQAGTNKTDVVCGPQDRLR

| Binder | binding result [1] | binding result [2] | binding result [3] | CD40 specific signal over the signal for this molecule [4] [fold] | CD40 specific signal over the signal for this molecule [5] [fold] | CD40 specific signal over the signal for this molecule [6] [fold] | CD40 specific signal over the signal for this molecule [7] [fold] | Kd [8] [pM] | koff [8] [s⁻¹] | kon [8] [M⁻¹ s⁻¹] | B cell B7-1 (CD80), fold increase in median intensity at 1 µg/ml [9] [fold] | B cell B7-2 (CD86), fold increase in median intensity at 1 µg/ml [9] [fold] | B cell CD23, fold increase in median intensity at 1 µg/ml [9] [fold] | B cell ICAM (CD54), fold increase in median intensity at 1 µg/ml [9] [fold] | B cell MHC Class II, fold increase in median intensity at 1 µg/ml [9] [fold] | DC B7-1 (CD80), fold increase in median intensity at 1 µg/ml, 72 h [10] [fold] | DC B7-2 (CD86), fold increase in median intensity at 1 µg/ml, 72 h [10] [fold] | DC CD83, fold increase in median intensity at 1 µg/ml, 72 h [10] [fold] | DC ICAM (CD54), fold increase in median intensity at 1 µg/ml, 72 h [10] [fold] | DC MHC Class II, fold increase in median intensity at 1 µg/ml, 72 h [10] [fold] | further results |
| --- | --- | --- | --- | --- | --- | --- | --- | --- | --- | --- | --- | --- | --- | --- | --- | --- | --- | --- | --- | --- | --- |
| monoclonal antibody 15.1.1 (antibody, human IgG2, kappa, V domains shown, Human IgG2 kappa from hybridoma; also called hybridoma 15.1.1 (LN 15851), ATCC PTA-3603) VH: QVQLQESGPGLVKPSETLSLTCTVSGGSIRSYYWTWIRQPPGKGLEWIGYIYYSGSTNYNPSLKSRVTISVDMSKNQFSLKLSSVTAADTAVYYCARKGDYGGNFNYFHQWGQGTLVTVSS VL: not shown | no binding | no binding | no binding | ≥ 100 | ≥ 100 | ≥ 100 | ≥ 100 | 4.05 | 2.83e-07 | 83000 |  |  |  |  |  |  |  |  |  |  |  |
| monoclonal antibody 23.5.1 (antibody, human IgG2, kappa, V domains shown, also called hybridoma 23.5.1 (LN 15855), ATCC PTA-4548) VH: QVQLVESGGGVVQPGRSLRLSCVASGFTFSNYGMHWVRQAPGKGLEWVAIISYDGSNKYYADSVKGRFTISRDNSKNTLYVQMNSLRAEDTAVYYCARRGHYGRDYYSYYGLDVWGQGTTVTVSS VL: not shown | no binding | no binding | no binding | ≥ 100 | ≥ 100 | ≥ 100 | ≥ 100 |  |  |  | 1.4 | 1 | 1.1 | 1.1 | 1.4 | 1.1 | 10.7 | 9.2 | 1.2 | 2.3 | DC IL-12p70 secretion with LPS, EC50 [11]: 0.1 µg/mL; Allo DC/T IFNγ secretion, EC50 [12]: 0.2 µg/mL |
| monoclonal antibody 21.2.1 (antibody, human IgG2, kappa, V domains shown, Human IgG2 kappa from hybridoma) VH: QVQLVESGGGVVQPGRSLRLSCAASGFTFSSYVMHWVRQAPGKGLEWVAVMSYDGSSKYYANSVKGRFTISRDNSKNTLYLQINSLRAEDTAVYYCARDGGKAVPGPDYWGQGILVTVSS VL: not shown | no binding | no binding | no binding | ≥ 100 | ≥ 100 | ≥ 100 | ≥ 100 |  |  |  | 0.9 | 1 | 1 | 1.3 | 1.2 | 0.9 | 7.4 | 10.8 | 1.5 | 1.8 | DC IL-12p70 secretion with LPS, EC50 [11]: 0.03 µg/mL; Allo DC/T IFNγ secretion, EC50 [12]: 0.03 µg/mL |
| monoclonal antibody 10.8.3 (antibody, human IgG2, kappa, V domains shown, Human IgG2 kappa from hybridoma) VH: QVQLQESGPGLVKPSETLSLTCTVSGGSISSYYWIWIRQPAGKGLEWIGRVYTSGSTNYNPSLKSRVTMSVDTSKNQFSLKLSSVTAADTAVYYCARDGLYRGYGMDVWGQGTTVTVSS VL: DIQMTQSPSSVSASVGDRVTITCRASQPISSWLAWYQQKPGKAPKLLIYSASGLQSGVPSRFSGSGSGTDFTLTISSLQPEDFATYYCQQTDSFPLTFGGGTKVEIKR | no binding | no binding | no binding | ≥ 100 | ≥ 100 | ≥ 100 | ≥ 100 | 2.23 | 4.48e-07 | 222000 |  |  |  |  |  |  |  |  |  |  |  |
